Reference: patent publication US20240368301A1

Key:
[1] = target: SIRPα V2-his (made by transient transfection of HEK293F cells according to SEQ ID NO:38) (Homo sapiens (Human)) (UniProt P78324); experiment: BLI (Octet RED 96), His-tagged antigen on Ni-NTA sensor, antibody in solution
[2] = target: SIRPα V2-his (made by transient transfection of HEK293F cells according to SEQ ID NO:38) (Homo sapiens (Human)) (UniProt P78324); experiment: competition ELISA; coated SIRPα-V2-his, biotin-CD47 as competitor

Chain of SIRPα V2-his (made by transient transfection of HEK293F cells according to SEQ ID NO:38) (Homo sapiens (Human)) (P78324 other isoform, or with tags, fused parts or gaps limits assumed): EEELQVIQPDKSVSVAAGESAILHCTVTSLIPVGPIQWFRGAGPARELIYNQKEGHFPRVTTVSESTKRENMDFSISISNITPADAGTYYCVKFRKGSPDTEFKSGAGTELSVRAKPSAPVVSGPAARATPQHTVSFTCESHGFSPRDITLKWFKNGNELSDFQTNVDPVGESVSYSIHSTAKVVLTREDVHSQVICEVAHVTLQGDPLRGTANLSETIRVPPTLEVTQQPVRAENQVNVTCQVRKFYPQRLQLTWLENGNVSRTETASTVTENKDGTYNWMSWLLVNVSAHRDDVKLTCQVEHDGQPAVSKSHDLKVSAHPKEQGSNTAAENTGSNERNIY

B1: AD4-12 (antibody, V domains shown)
VH: EVQLEESGPGLVAPSQSLSITCTVSGFSLTGYGVNWVRQPPGKGLEWLGIIWGDGSTDYNSALKSRLSISKDNSKSQVFLKMNSLQSDDTARYYCARAGKMDYWGQGTSVTVSS
VL: DIVLTQSPASLAVSLGQGATISCRASESVDSYGNSFMHWYQQKPGQPPKPLIYLASNLESGVPARFSGSGSRTDFTLTIDPVEADDAATYYCQQNNEYPWTFGGGTKLEIK
Kd [1]: 0.898 nM | koff [1]: 0.000327 s⁻¹ | kon [1]: 364000 M⁻¹ s⁻¹ | IC50 [2]: 9.32 nM
